{
  "source": "paper doi:10.1101/2024.09.22.614354",
  "about": "(bioRxiv, 2024)",
  "molecular_target": "T1, Rb^P I703F (human, UniProt P06400 380-788, I703F)",
  "T1 sequence": "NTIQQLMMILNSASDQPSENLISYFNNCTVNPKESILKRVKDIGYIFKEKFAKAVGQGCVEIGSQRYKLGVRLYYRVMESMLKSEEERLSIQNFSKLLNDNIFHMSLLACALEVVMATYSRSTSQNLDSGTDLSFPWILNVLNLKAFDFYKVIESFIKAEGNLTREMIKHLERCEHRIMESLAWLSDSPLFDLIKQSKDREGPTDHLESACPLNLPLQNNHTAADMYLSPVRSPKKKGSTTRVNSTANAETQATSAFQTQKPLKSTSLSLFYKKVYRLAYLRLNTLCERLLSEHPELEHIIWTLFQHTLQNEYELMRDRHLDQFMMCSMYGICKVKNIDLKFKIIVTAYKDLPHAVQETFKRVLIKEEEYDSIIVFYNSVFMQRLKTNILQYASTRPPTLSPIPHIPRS",
  "assay": "fluorescence polarisation",
  "data": [
    {"binder": "DLYCYEQLN (not fully specified; TMR fluorescent label (TMR-E7^LxCxE))", "note": "[TMR-E7^LxCxE (LxCxE peptide of the E7 oncoprotein from HPV, TMR-labeled)]", "values": [
      {"measurement": "Kd", "result": 53, "unit": "nM"}
    ]}
  ]
}
